The values that follow come from US20190010233A1.

Test [1] addresses recombinant human PD-1^ECD-hFc protein (human) (UniProt Q15116). The experiment in a line: ELISA, coated PD-1-hFc, 1 µg/mL. (In an ELISA, binding on a coated surface is turned into a signal by an enzyme label.)
Test [2] shares this target. The test can be described thus: ELISA, coated PD-1-hFc, 0.2 µg/mL.
Test [3] shares this target. The experiment in a line: ELISA, coated PD-1-hFc, 0.0003 µg/mL.
For test [4] the target is unchanged. The test can be described thus: ELISA, coated PD-1-hFc, 0.008 µg/mL.
Test [5] has the same target. The test can be described thus: ELISA, coated PD-1-hFc, 0.04 µg/mL.
Test [6] shares this target. The test can be described thus: ELISA, coated PD-1-hFc, 0.0016 µg/mL.
The target is the same in test [7]. The test can be described thus: ELISA, coated PD-1-hFc, 0.00001 µg/mL.
Test [8] shares this target. The experiment in a line: ELISA, coated PD-1-hFc, 0.0001 µg/mL.

recombinant human PD-1^ECD-hFc protein (human), sequence (Q15116 25-167): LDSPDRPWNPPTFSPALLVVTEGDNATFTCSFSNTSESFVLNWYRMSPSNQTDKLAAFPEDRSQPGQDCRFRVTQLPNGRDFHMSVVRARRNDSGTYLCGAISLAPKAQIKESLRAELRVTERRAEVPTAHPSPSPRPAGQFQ

“control protein (biotinylated non-PD-L1^ECD-hFc)”: the OD450 nm amounted to 0.51 in test [1]; 0.1 in test [2]; 0.255 in test [3]; 0.135 in test [4]; 0.49 in test [5]; 0.19 in test [6]. For the same substance, the OD450 nm in test [7] was 0.09; in test [8], 0.12.
